Laboratory results from US20210032313A1 (Daiichi Sankyo, published 2021).
Numbering of substitutions follows the chain as printed.

T1: human KLK5 (human, UniProt Q9Y337 67-293)
T1 construct: also called hKLK5; active KLK5; not shown: C-terminal tag with His tag, encoded by primers 3/4
T1 sequence: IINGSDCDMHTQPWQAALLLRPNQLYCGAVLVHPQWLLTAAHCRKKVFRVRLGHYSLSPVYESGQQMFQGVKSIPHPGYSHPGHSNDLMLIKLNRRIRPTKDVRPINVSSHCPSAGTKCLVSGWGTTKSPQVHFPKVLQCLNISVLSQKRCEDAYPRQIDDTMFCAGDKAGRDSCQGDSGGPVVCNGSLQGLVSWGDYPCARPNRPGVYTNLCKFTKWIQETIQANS

T2: KLK12 (human, UniProt Q9UKR0)
T2 construct: commercial enzyme (R&D Systems, 3095-SE); 0.1 µg/mL in the assay; substrate Boc-Val-Pro-Arg-AMC 100 µM; also called Human KLK12; hKLK12
T2 sequence (protease, looked up): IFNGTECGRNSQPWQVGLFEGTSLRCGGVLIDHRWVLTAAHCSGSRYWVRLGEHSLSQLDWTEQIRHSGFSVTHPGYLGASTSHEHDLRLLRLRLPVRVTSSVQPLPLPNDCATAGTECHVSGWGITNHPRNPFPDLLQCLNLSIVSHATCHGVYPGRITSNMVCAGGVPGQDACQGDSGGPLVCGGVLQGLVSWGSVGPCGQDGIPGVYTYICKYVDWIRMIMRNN

T3: mouse KLK14 (mouse, UniProt Q8CGR5 24-250)
T3 sequence: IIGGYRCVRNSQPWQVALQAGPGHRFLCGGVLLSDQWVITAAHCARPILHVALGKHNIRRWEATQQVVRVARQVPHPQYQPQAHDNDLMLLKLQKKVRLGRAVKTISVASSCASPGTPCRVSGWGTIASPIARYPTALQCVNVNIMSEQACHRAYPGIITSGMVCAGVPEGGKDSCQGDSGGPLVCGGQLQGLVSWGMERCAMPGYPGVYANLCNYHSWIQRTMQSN

T4: mouse KLK5 (mouse)
T4 chain: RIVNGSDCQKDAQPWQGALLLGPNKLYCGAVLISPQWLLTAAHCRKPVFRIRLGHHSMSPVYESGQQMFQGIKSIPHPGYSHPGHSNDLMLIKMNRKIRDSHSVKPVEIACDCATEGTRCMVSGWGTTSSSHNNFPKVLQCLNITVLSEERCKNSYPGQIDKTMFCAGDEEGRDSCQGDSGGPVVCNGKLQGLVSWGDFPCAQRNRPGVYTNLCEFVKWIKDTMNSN

B1: KLK5/KLK14 inhibitory peptide K51069 (peptide)
chain: GPQFGLFSKYRTPNCSQVVETYCNRDYDPVCGSDMSTYANECTLCMKIREGGHNIKIIRNGPCGG
notes: SPINK2 mutant peptide made in E. coli
B2: KLK5/KLK14 inhibitory peptide K50015 (peptide)
chain: B1 chain with S16Y, Q17D, V18T, V19T, E20T, T21H, N24S, D26E
notes: as for B1

How the values were obtained:
human KLK5 = molecular target: T1, human KLK5; experiment: SPR, BIAcore T200; biotinylated KLK5 captured on chip, peptide as analyte; single cycle kinetics, 1:1 model
Method: In order to measure the binding affinity of the KLK5 inhibitory peptides, surface plasmon resonance analysis was conducted using BIAcore T 200 (GE healthcare). A complementary strand of DNA of a streptavidin conjugate was captured by hybridization on Sensor Chip CAP (GE healthcare) on which single-stranded DNA immobilized. Next, KLK5 biotinylated using EZ-Link NHS-PEG4-Biotin (Thermo Fisher Scientific) was captured at a flow rate of 10 μL/min to immobilize about 10 RU. Thereafter, the KLK5 inhibitory peptide, serially diluted 2-fold with HBS-EP (0.625 to 10 nM), was added thereto as an analyte at a flow rate of 30 μL/min. In the BIAcore T 200 Evaluation software (version 2.0), kon and koff were calculated by analysis using Single cycle kinetics in a simple one-to-one Langmuir binding model. The dissociation constant KD was calculated as a ratio of koff/kₒₙ. Further, multiple KLK5 inhibitory peptides were measured by regenerating Sensor Chip CAP using a Regeneration buffer attached to a Biotin CAPture Kit (GE healthcare) and repeatedly capturing biotinylated KLK5.

KLK12 = molecular target: T2, KLK12; experiment: fluorogenic peptide substrate cleavage, 1 µM inhibitor
Method: FIG. 3G includes graphs to evaluate the cross-reactivity of each inhibitory peptide with proteases, using the degradation of a peptide substrate as an index. For evaluating the Human KLK7 inhibitory activity, hKLK7 with a final concentration of 1 μg/mL and a substrate peptide Mca-Arg-Pro-Lys-Pro-Val-Glu-Nval-Trp-Arg-Lys (Dnp)-NH₂ (R&D Systems, Inc., ES002) with a final concentration of 20 μM were used. For evaluating the Human KLK8 inhibitory activity, hKLK8 (UniProt: 060259, prepared by the inventors) with a final concentration of 5 nM and a substrate peptide Boc-Val-Pro-Arg-AMC (R&D Systems, Inc., ES011) with a final concentration of 100 μM were used. For evaluating the Human KLK12 inhibitory activity, hKLK12 (R&D Systems, Inc., 3095-SE) with a final concentration of 0.1 μg/mL and a substrate peptide Boc-Val-Pro-Arg-AMC (R&D Systems, Inc., ES011) with a final concentration of 100 μM were used.
(§1) The specificities for other proteases were evaluated using the degradation of a substrate peptide as an index. As in the method described in (3-1), 25 μL each of a protease and a sample diluted with an assay buffer were mixed (to a final concentration of sample of 1 μM), followed by a reaction at 37° C. for 20 minutes. Thereafter, 50 μL of a substrate diluted with an assay buffer was added thereto, and the fluorescence signal was measured using Enspire (PerkinElmer). An assay buffer (50 mM Tris, 150 mM NaCl, pH 8.0) was used for the evaluation of the protease activity, and a PROTEOSAVE® SS96F black plate (Sumitomo Bakelite Co., Ltd.) was used for the reaction and the measurement. The combinations of the protease and the substrate used for the evaluation of the specificity were as follows.

bChymotrypsin = experiment: as above
Method: FIG. 3A includes graphs to evaluate the cross-reactivity of each inhibitory peptide with proteases, using the degradation of a peptide substrate as an index. For evaluating the Bovine trypsin inhibitory activity, trypsin (Pierce, 20233) with a final concentration of 5 nM and a substrate peptide Boc-Val-Pro-Arg-AMC (R&D Systems, Inc., ES011) with a final concentration of 100 μM were used. For evaluating the Human trypsin inhibitory activity, trypsin (Sigma-Aldrich Co. LLC, T6424) with a final concentration of 1 nM and a substrate peptide Boc-Val-Pro-Arg-AMC (R&D Systems, Inc., ES011) with a final concentration of 100 μM were used. For evaluating the Bovine α-chymotrypsin inhibitory activity, chymotrypsin (Worthington Biochemical Corporation, LS001434) with a final concentration of 10 nM and a substrate peptide Suc-Leu-Leu-Val-Tyr-MCA (PEPTIDE […], INC., 3120-v) with a final concentration of 100 μM were used.
as §1

mouse KLK14 = molecular target: T3, mouse KLK14; experiment: cell-based or functional assay
mouse KLK5 = molecular target: T4, mouse KLK5; experiment: cell-based or functional assay
mouse KLK7 = mouse KLK7 (mouse, UniProt Q91VE3 26-249); experiment: cell-based or functional assay
Sequence of mouse KLK7 (Q91VE3 26-249): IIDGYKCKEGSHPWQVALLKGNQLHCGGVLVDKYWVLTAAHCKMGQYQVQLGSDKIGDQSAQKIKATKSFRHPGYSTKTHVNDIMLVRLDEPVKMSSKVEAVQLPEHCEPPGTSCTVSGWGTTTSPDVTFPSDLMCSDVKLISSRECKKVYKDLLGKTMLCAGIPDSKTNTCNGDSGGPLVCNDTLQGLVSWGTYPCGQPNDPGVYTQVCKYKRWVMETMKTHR

Kd (human KLK5) | koff (human KLK5) | kon (human KLK5) | binding result (KLK12) | binding result (bChymotrypsin) | IC50(nM) for mKLK14 (mouse KLK14) | IC50(nM) for mKLK5 (mouse KLK5) | IC50(nM) for mKLK7 (mouse KLK7) | Binder
≤ 0.001 nM | ≤ 1e-06 s⁻¹ | 940000 M⁻¹ s⁻¹ | binds | binds | 40 nM | < 0.5 nM | 181 nM | B1
≤ 0.0011 nM | ≤ 1e-06 s⁻¹ | 940000 M⁻¹ s⁻¹ | binds | binds | 108 nM | < 0.5 nM | 248 nM | B2
